This is an account of results in PMC11969024 (2025).

The labels stand for the following.
B1: peptide HD2 (from tick evasin EVA4) / CCL8 (biotinylated, synthetic) (parent complex)
chain 1: EEDDYTAYAPLTCYFT
chain 2: QPDSVSIPITCCFNVINRKIPIQRLESYTRITNIQCPKEAVIFKTKRGKEVCADPKERWVRDSMKHLDQIFQNLKP
B2: peptide HD2 (from tick evasin EVA4) / CCL18 (biotinylated, synthetic) (parent complex)
chain 1: EEDDYTAYAPLTCYFT
chain 2: AQVGTNKELCCLVYTSWQIPQKFIVDYSETSPQCPKPGVILLTKRGRQICADPNKKWVQKYISDLKLNA

The variants in the first test derive from B1.
As for chain 1 F15T, the enrichment is 2.65 log2 (difference from the parental peptide). Regarding chain 1 F15M, the enrichment was 2.61 log2 (difference from the parental peptide). Regarding chain 1 F15I, the enrichment was 1.54 log2 (difference from the parental peptide). Still for that read-out and setting: with chain 1 F15R the figure was 1.7 log2 (difference from the parental peptide); with chain 1 F15A, 2.51 log2 (difference from the parental peptide); with chain 1 F15E, 1.9 log2 (difference from the parental peptide). In the case of chain 1 F15K, the enrichment is 2.15 log2 (difference from the parental peptide). The same measure, in the same setting: with chain 1 L11K the figure was 1.95 log2 (difference from the parental peptide); with chain 1 L11C, 1.32 log2 (difference from the parental peptide); with chain 1 Y14A, -0.507 log2 (difference from the parental peptide).

Take chain 1 Y14C: the enrichment is -2.25 log2 (difference from the parental peptide). For the variant chain 1 Y14W, the enrichment was 0.518 log2 (difference from the parental peptide).

For the variant chain 1 Y14I, the enrichment is 1.29 log2 (difference from the parental peptide). Same read-out and setting: the figure for chain 1 Y14M is 1.03 log2 (difference from the parental peptide). Still for that read-out and setting: the figure for chain 1 Y14N is 0.255 log2 (difference from the parental peptide). For the variant chain 1 Y14P, the enrichment is -2.37 log2 (difference from the parental peptide).

For the variant chain 1 E2R, the enrichment is -3.19 log2 (difference from the parental peptide). For the variant chain 1 E2Q, the enrichment was -2.83 log2 (difference from the parental peptide).

Turning to chain 1 D4Q, the enrichment is -1.83 log2 (difference from the parental peptide).

For chain 1 D4Y, the enrichment was -2.68 log2 (difference from the parental peptide). With chain 1 D4W, the enrichment was -3.2 log2 (difference from the parental peptide). Same read-out and setting: with chain 1 D4I the figure was -3.36 log2 (difference from the parental peptide); with chain 1 A7G, 0.697 log2 (difference from the parental peptide); with chain 1 A7R, -0.287 log2 (difference from the parental peptide). On the same count and under the same terms, with chain 1 A7L the figure was 0.505 log2 (difference from the parental peptide). With chain 1 A7H, the enrichment was -0.321 log2 (difference from the parental peptide). Same read-out and setting: the figure for chain 1 A7N is 1.02 log2 (difference from the parental peptide). On the same count and under the same terms, with chain 1 A7F the figure was -0.605 log2 (difference from the parental peptide). On the same count and under the same terms, with chain 1 Y5F the figure was -0.0383 log2 (difference from the parental peptide); with chain 1 Y5W, -0.0149 log2 (difference from the parental peptide). On to chain 1 Y5E, for which the enrichment was -1.42 log2 (difference from the parental peptide). The same measure, in the same setting: with chain 1 Y5I the figure was -2.45 log2 (difference from the parental peptide); with chain 1 Y5V, -3.14 log2 (difference from the parental peptide); with chain 1 Y5T, -4.38 log2 (difference from the parental peptide).

In the case of chain 1 T16A, the enrichment was 1.43 log2 (difference from the parental peptide). As for chain 1 T16H, the enrichment is 0.233 log2 (difference from the parental peptide).

Consider chain 1 T16I, for which the enrichment was 0.743 log2 (difference from the parental peptide). Still for that read-out and setting: with chain 1 T16P the figure was 1.42 log2 (difference from the parental peptide); with chain 1 P10N, -7.54 log2 (difference from the parental peptide). The same measure, in the same setting: the figure for chain 1 P10T is -7.38 log2 (difference from the parental peptide); for chain 1 P10E it is -7.42 log2 (difference from the parental peptide); for chain 1 D3E it is 0.904 log2 (difference from the parental peptide). Same read-out and setting: with chain 1 E1I the figure was -1.02 log2 (difference from the parental peptide); with chain 1 E1S, -0.455 log2 (difference from the parental peptide); with chain 1 E1H, -1.32 log2 (difference from the parental peptide). chain 1 E1W: the enrichment is -2.25 log2 (difference from the parental peptide). On the same count and under the same terms, with chain 1 E1M the figure was -0.394 log2 (difference from the parental peptide); with chain 1 A9G, -0.437 log2 (difference from the parental peptide). On the same count and under the same terms, the figure for chain 1 A9K is -1.29 log2 (difference from the parental peptide); for chain 1 A9Y it is -4.23 log2 (difference from the parental peptide). Turning to chain 1 A9M, the enrichment is -1.3 log2 (difference from the parental peptide). Same read-out and setting: with chain 1 A9T the figure was -0.868 log2 (difference from the parental peptide). Same read-out and setting: with chain 1 A9V the figure was -3.26 log2 (difference from the parental peptide). Still for that read-out and setting: with chain 1 A9S the figure was 0.31 log2 (difference from the parental peptide); with chain 1 T6K, -1.83 log2 (difference from the parental peptide); with chain 1 T6E, 2.76 log2 (difference from the parental peptide).

With chain 1 T6D, the enrichment was 2.7 log2 (difference from the parental peptide). On the same count and under the same terms, with chain 1 T6H the figure was -0.816 log2 (difference from the parental peptide).

On to chain 1 T6R, for which the enrichment was -0.801 log2 (difference from the parental peptide). On the same count and under the same terms, the figure for chain 1 T12C is -5.83 log2 (difference from the parental peptide).

In the case of chain 1 T12S, the enrichment is 0.405 log2 (difference from the parental peptide). Still for that read-out and setting: with chain 1 T12R the figure was 0.0146 log2 (difference from the parental peptide); with chain 1 T12W, -1.55 log2 (difference from the parental peptide); with chain 1 T12N, 0.576 log2 (difference from the parental peptide). On the same count and under the same terms, the figure for chain 1 T12K is -0.15 log2 (difference from the parental peptide); for chain 1 C13L it is -1.06 log2 (difference from the parental peptide); for chain 1 C13A it is -2.32 log2 (difference from the parental peptide). On to chain 1 C13F, for which the enrichment was -0.473 log2 (difference from the parental peptide).

Regarding chain 1 Y8L, the enrichment was -7.29 log2 (difference from the parental peptide). Same read-out and setting: the figure for chain 1 Y8R is -6.7 log2 (difference from the parental peptide); for chain 1 Y8M it is -6.01 log2 (difference from the parental peptide). On the same count and under the same terms, the figure for chain 1 Y8T is -8 log2 (difference from the parental peptide).

In another test the parent is B2.
Regarding chain 1 L11P, the enrichment is -3.17 log2 (difference from the parental peptide). Same read-out and setting: with chain 1 L11G the figure was -7.45 log2 (difference from the parental peptide). Same read-out and setting: the figure for chain 1 L11D is -8.28 log2 (difference from the parental peptide); for chain 1 T16W it is -0.639 log2 (difference from the parental peptide).

In the case of chain 1 T16M, the enrichment was 0.26 log2 (difference from the parental peptide). Take chain 1 T16V: the enrichment is 0.0426 log2 (difference from the parental peptide).

Regarding chain 1 T16S, the enrichment is 0.936 log2 (difference from the parental peptide). Take chain 1 T16I: the enrichment is -0.207 log2 (difference from the parental peptide). On the same count and under the same terms, with chain 1 D4H the figure was -3.06 log2 (difference from the parental peptide); with chain 1 D4L, -2.06 log2 (difference from the parental peptide).

With chain 1 D4T, the enrichment was -3.75 log2 (difference from the parental peptide). The same measure, in the same setting: the figure for chain 1 D4M is -1.48 log2 (difference from the parental peptide); for chain 1 D4A it is -1.65 log2 (difference from the parental peptide); for chain 1 Y8M it is -6.37 log2 (difference from the parental peptide). Still for that read-out and setting: the figure for chain 1 Y8T is -4.68 log2 (difference from the parental peptide); for chain 1 Y8A it is 0.303 log2 (difference from the parental peptide); for chain 1 Y8C it is -8.88 log2 (difference from the parental peptide). On the same count and under the same terms, the figure for chain 1 Y8W is 0.189 log2 (difference from the parental peptide); for chain 1 Y8I it is -7.58 log2 (difference from the parental peptide); for chain 1 F15Y it is 1.67 log2 (difference from the parental peptide). Turning to chain 1 F15I, the enrichment is 0.366 log2 (difference from the parental peptide).

In the case of chain 1 F15R, the enrichment was -0.00139 log2 (difference from the parental peptide).

Turning to chain 1 F15H, the enrichment was 0.242 log2 (difference from the parental peptide). With chain 1 C13L, the enrichment was -7.42 log2 (difference from the parental peptide). The same measure, in the same setting: with chain 1 C13M the figure was -4.59 log2 (difference from the parental peptide). Same read-out and setting: the figure for chain 1 C13Y is -5.14 log2 (difference from the parental peptide); for chain 1 C13V it is -6.58 log2 (difference from the parental peptide); for chain 1 C13P it is -7.21 log2 (difference from the parental peptide).

With chain 1 T6D, the enrichment is 2.62 log2 (difference from the parental peptide). The same measure, in the same setting: the figure for chain 1 T6L is -1.51 log2 (difference from the parental peptide); for chain 1 T6G it is 2.9 log2 (difference from the parental peptide). Still for that read-out and setting: the figure for chain 1 T6Q is 1.41 log2 (difference from the parental peptide); for chain 1 T6P it is -2.2 log2 (difference from the parental peptide).

Take chain 1 T6H: the enrichment was 0.0995 log2 (difference from the parental peptide).

Consider chain 1 E2P, for which the enrichment is -2.55 log2 (difference from the parental peptide).

With chain 1 E2A, the enrichment was -1.63 log2 (difference from the parental peptide). The same measure, in the same setting: the figure for chain 1 E2L is -1.93 log2 (difference from the parental peptide).

chain 1 E2C: the enrichment was -10.2 log2 (difference from the parental peptide). For chain 1 E1G, the enrichment is -0.506 log2 (difference from the parental peptide).

Turning to chain 1 E1F, the enrichment was -2.72 log2 (difference from the parental peptide). The same measure, in the same setting: the figure for chain 1 E1H is -1.83 log2 (difference from the parental peptide); for chain 1 E1T it is -0.938 log2 (difference from the parental peptide). The same measure, in the same setting: the figure for chain 1 E1D is 1.97 log2 (difference from the parental peptide); for chain 1 E1V it is -1.49 log2 (difference from the parental peptide); for chain 1 E1Q it is -1.1 log2 (difference from the parental peptide). The same measure, in the same setting: with chain 1 P10Y the figure was -6.76 log2 (difference from the parental peptide); with chain 1 P10W, -5.72 log2 (difference from the parental peptide). On to chain 1 T12Q, for which the enrichment is -0.825 log2 (difference from the parental peptide). The same measure, in the same setting: with chain 1 T12H the figure was -0.953 log2 (difference from the parental peptide); with chain 1 T12G, -8.91 log2 (difference from the parental peptide). The same measure, in the same setting: the figure for chain 1 T12D is -4.6 log2 (difference from the parental peptide). In the case of chain 1 T12K, the enrichment was -4.78 log2 (difference from the parental peptide). The same measure, in the same setting: the figure for chain 1 Y14A is -5.59 log2 (difference from the parental peptide); for chain 1 Y14I it is -0.627 log2 (difference from the parental peptide). On the same count and under the same terms, the figure for chain 1 Y14R is -6.83 log2 (difference from the parental peptide); for chain 1 Y14L it is -2.62 log2 (difference from the parental peptide); for chain 1 A7V it is -1.12 log2 (difference from the parental peptide).

In the case of chain 1 A7S, the enrichment was 0.379 log2 (difference from the parental peptide).

As to chain 1 A7G, the enrichment was -0.215 log2 (difference from the parental peptide).

With chain 1 A7F, the enrichment is -2.38 log2 (difference from the parental peptide). Still for that read-out and setting: with chain 1 A9R the figure was -1.3 log2 (difference from the parental peptide); with chain 1 A9W, -3.66 log2 (difference from the parental peptide). On the same count and under the same terms, with chain 1 A9G the figure was -3.53 log2 (difference from the parental peptide); with chain 1 A9V, -8.05 log2 (difference from the parental peptide).

Regarding chain 1 D3Q, the enrichment was -2.18 log2 (difference from the parental peptide).

For the variant chain 1 D3Y, the enrichment is -1.47 log2 (difference from the parental peptide). Still for that read-out and setting: the figure for chain 1 D3N is -1.71 log2 (difference from the parental peptide); for chain 1 D3P it is 0.322 log2 (difference from the parental peptide); for chain 1 D3V it is -2.61 log2 (difference from the parental peptide). The same measure, in the same setting: the figure for chain 1 D3H is -1.21 log2 (difference from the parental peptide). Consider chain 1 D3S, for which the enrichment was -1.57 log2 (difference from the parental peptide).

Take chain 1 Y5H: the enrichment is -4.35 log2 (difference from the parental peptide).

In the case of chain 1 Y5T, the enrichment is -3.47 log2 (difference from the parental peptide). The same measure, in the same setting: the figure for chain 1 Y5S is -3.37 log2 (difference from the parental peptide); for chain 1 Y5G it is -3.5 log2 (difference from the parental peptide). Consider chain 1 Y5F, for which the enrichment is -0.587 log2 (difference from the parental peptide).

As for chain 1 Y5C, the enrichment is -5.9 log2 (difference from the parental peptide). Turning to chain 1 Y5P, the enrichment is -4.12 log2 (difference from the parental peptide).
